Test results reported in patent US20140147444A1 (published 2014).
Like-named read-outs stand apart in the source and are kept apart here.

T1: human OPGbp [143-317] (human, UniProt O14788 143-317)
T1 construct: also called OPGL
T1 sequence (looked up): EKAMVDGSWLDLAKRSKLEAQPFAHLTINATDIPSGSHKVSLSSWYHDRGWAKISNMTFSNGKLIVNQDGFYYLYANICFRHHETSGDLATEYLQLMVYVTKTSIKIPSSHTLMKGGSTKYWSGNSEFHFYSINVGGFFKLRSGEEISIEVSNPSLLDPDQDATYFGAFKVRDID


Tests used:
[1] = biological target: T1, human OPGbp [143-317]; assay: SPR (BIAcore), immobilized OPGbp [143-317]
[2] = biological target: T1, human OPGbp [143-317]; assay: SPR (BIAcore), immobilized OPGbp [143-317]; remark: listed apart in the source

Kd [2] | koff [2] | kon [2] | Binder | further results
 |  |  | “AT” antibody variant N98A (heavy chain CDR3) (antibody, name in Kabat numbering, V domains shown, not shown: human IgG1 CH1, hinge, CH2 and CH3) VH: QVQLVQSGAEVRKPGASVKVSCKASGYDFSNYAIHWVRQAPGQRLEWMGWINAGNGNTKFSQKFQGRITVTRDTAASTAYMELRSLRSEDTAVYYCARDSSAMVRGIIIAYYFDYWGQGTLVTVSS VL: EIVMTQSPSSLSASVGDRVTITCRASQSISRYLNWYQLKPGKAPRLLIYGASSLQSGVPSRFSGSGSGAEFTLTISSLQPEDIATYYCQHTRAFGQGTKVEIKR | Kd [1]: 0.67 nM; koff [1]: 0.0009 s⁻¹; kon [1]: 1.3e+06 M⁻¹ s⁻¹
 |  |  | “AT” antibody variant S96A, N98A (heavy chain CDR3) (antibody, name in Kabat numbering, V domains shown, not shown: human IgG1 CH1, hinge, CH2 and CH3) VH: QVQLVQSGAEVRKPGASVKVSCKASGYDFSNYAIHWVRQAPGQRLEWMGWINAGNGNTKFSQKFQGRITVTRDTAASTAYMELRSLRSEDTAVYYCARDASAMVRGIIIAYYFDYWGQGTLVTVSS VL: EIVMTQSPSSLSASVGDRVTITCRASQSISRYLNWYQLKPGKAPRLLIYGASSLQSGVPSRFSGSGSGAEFTLTISSLQPEDIATYYCQHTRAFGQGTKVEIKR | binding result [1]: no binding
0.4 nM | 0.00578 s⁻¹ | 1.45e+07 M⁻¹ s⁻¹ | “AT” antibody variant S97K (heavy chain CDR3) (antibody, name in Kabat numbering, V domains shown, not shown: human IgG1 CH1, hinge, CH2 and CH3) VH: QVQLVQSGAEVRKPGASVKVSCKASGYDFSNYAIHWVRQAPGQRLEWMGWINAGNGNTKFSQKFQGRITVTRDTAASTAYMELRSLRSEDTAVYYCARDSKNMVRGIIIAYYFDYWGQGTLVTVSS VL: EIVMTQSPSSLSASVGDRVTITCRASQSISRYLNWYQLKPGKAPRLLIYGASSLQSGVPSRFSGSGSGAEFTLTISSLQPEDIATYYCQHTRAFGQGTKVEIKR | 
12.4 nM | 0.029 s⁻¹ | 2.33e+06 M⁻¹ s⁻¹ | “AT” antibody variant S97M (heavy chain CDR3) (antibody, name in Kabat numbering, V domains shown, not shown: human IgG1 CH1, hinge, CH2 and CH3) VH: QVQLVQSGAEVRKPGASVKVSCKASGYDFSNYAIHWVRQAPGQRLEWMGWINAGNGNTKFSQKFQGRITVTRDTAASTAYMELRSLRSEDTAVYYCARDSMNMVRGIIIAYYFDYWGQGTLVTVSS VL: EIVMTQSPSSLSASVGDRVTITCRASQSISRYLNWYQLKPGKAPRLLIYGASSLQSGVPSRFSGSGSGAEFTLTISSLQPEDIATYYCQHTRAFGQGTKVEIKR | 
28.9 nM | 0.118 s⁻¹ | 4.09e+06 M⁻¹ s⁻¹ | “AT” antibody variant S97R (heavy chain CDR3) (antibody, name in Kabat numbering, V domains shown, not shown: human IgG1 CH1, hinge, CH2 and CH3) VH: QVQLVQSGAEVRKPGASVKVSCKASGYDFSNYAIHWVRQAPGQRLEWMGWINAGNGNTKFSQKFQGRITVTRDTAASTAYMELRSLRSEDTAVYYCARDSRNMVRGIIIAYYFDYWGQGTLVTVSS VL: EIVMTQSPSSLSASVGDRVTITCRASQSISRYLNWYQLKPGKAPRLLIYGASSLQSGVPSRFSGSGSGAEFTLTISSLQPEDIATYYCQHTRAFGQGTKVEIKR | 
 |  |  | “AT” antibody variant S97Y (heavy chain CDR3) (antibody, name in Kabat numbering, V domains shown, not shown: human IgG1 CH1, hinge, CH2 and CH3) VH: QVQLVQSGAEVRKPGASVKVSCKASGYDFSNYAIHWVRQAPGQRLEWMGWINAGNGNTKFSQKFQGRITVTRDTAASTAYMELRSLRSEDTAVYYCARDSYNMVRGIIIAYYFDYWGQGTLVTVSS VL: EIVMTQSPSSLSASVGDRVTITCRASQSISRYLNWYQLKPGKAPRLLIYGASSLQSGVPSRFSGSGSGAEFTLTISSLQPEDIATYYCQHTRAFGQGTKVEIKR | binding result [2]: no binding
8.19 nM | 0.00598 s⁻¹ | 730000 M⁻¹ s⁻¹ | “AT” antibody variant S97Q (heavy chain CDR3) (antibody, name in Kabat numbering, V domains shown, not shown: human IgG1 CH1, hinge, CH2 and CH3) VH: QVQLVQSGAEVRKPGASVKVSCKASGYDFSNYAIHWVRQAPGQRLEWMGWINAGNGNTKFSQKFQGRITVTRDTAASTAYMELRSLRSEDTAVYYCARDSQNMVRGIIIAYYFDYWGQGTLVTVSS VL: EIVMTQSPSSLSASVGDRVTITCRASQSISRYLNWYQLKPGKAPRLLIYGASSLQSGVPSRFSGSGSGAEFTLTISSLQPEDIATYYCQHTRAFGQGTKVEIKR | 
2.51 nM | 0.00116 s⁻¹ | 463000 M⁻¹ s⁻¹ | “AT” antibody variant S97T (heavy chain CDR3) (antibody, name in Kabat numbering, V domains shown, not shown: human IgG1 CH1, hinge, CH2 and CH3) VH: QVQLVQSGAEVRKPGASVKVSCKASGYDFSNYAIHWVRQAPGQRLEWMGWINAGNGNTKFSQKFQGRITVTRDTAASTAYMELRSLRSEDTAVYYCARDSTNMVRGIIIAYYFDYWGQGTLVTVSS VL: EIVMTQSPSSLSASVGDRVTITCRASQSISRYLNWYQLKPGKAPRLLIYGASSLQSGVPSRFSGSGSGAEFTLTISSLQPEDIATYYCQHTRAFGQGTKVEIKR | 
0.92 nM | 0.00069 s⁻¹ | 750000 M⁻¹ s⁻¹ | “AT” antibody variant S97L (heavy chain CDR3) (antibody, name in Kabat numbering, V domains shown, not shown: human IgG1 CH1, hinge, CH2 and CH3) VH: QVQLVQSGAEVRKPGASVKVSCKASGYDFSNYAIHWVRQAPGQRLEWMGWINAGNGNTKFSQKFQGRITVTRDTAASTAYMELRSLRSEDTAVYYCARDSLNMVRGIIIAYYFDYWGQGTLVTVSS VL: EIVMTQSPSSLSASVGDRVTITCRASQSISRYLNWYQLKPGKAPRLLIYGASSLQSGVPSRFSGSGSGAEFTLTISSLQPEDIATYYCQHTRAFGQGTKVEIKR | 
